From publication PMC2958096 come the findings set out here.

Like-named read-outs stand apart in the source and are kept apart here.

The target in data set [1] is T1, SUD-C (SARS-CoV, UniProt P0C6U8 1473-1538). In words: EMSA. Background: Mobility shift assays separate free from complexed probe on a gel.
The target of data set [2] is T2, SUD-M (SARS-CoV, UniProt P0C6U8 1345-1469). In words: EMSA.
The target of data set [3] is T3, SUD-MC (SARS-CoV, UniProt P0C6U8 1345-1538). In words: EMSA.
The target of data set [4] is T2, SUD-M.
Data set [5] concerns the target T3, SUD-MC. In words: NMR chemical shift perturbation.
Data set [6] concerns the target T2, SUD-M. In words: NMR chemical shift perturbation.
For data set [7], the target named is T3, SUD-MC. In words: EMSA. This is another data set of the same source.
Data set [8] concerns the target T1, SUD-C. In words: NMR chemical shift perturbation.
The target of data set [9] is T1, SUD-C. In words: NMR chemical shift perturbation. This is another data set of the same source.
The target of data set [10] is T3, SUD-MC. In words: NMR chemical shift perturbation. This is another data set of the same source.
Data set [11] concerns the target T2, SUD-M. In words: EMSA. The source holds these as a separate data set.
Data set [12] deals with T3, SUD-MC. In words: NMR chemical shift perturbation. The source holds these as a separate data set.
The target of data set [13] is T3, SUD-MC. In words: EMSA. The source holds these as a separate data set.
The target of data set [14] is T2, SUD-M. In words: EMSA. This is another data set of the same source.

As for GGGAGGGAGGGAGGGAGGGA (ssRNA) [(GGGA)5], the binding result is reported as “no binding” with SUD-C [1], “binds” with SUD-M [2] and “binds” in the data set with SUD-MC [3].

Consider GUUCGUUUAG (ssRNA) [TRS(-)], for which the binding result in the data set with SUD-M [4] is reported as “no binding”.

In the case of GGAGGAGGAGGA (ssRNA) [(GGA)4], the binding result in the data set with SUD-MC [5] and with SUD-M [6] was “binds” in each case.

In the case of GGGAGGGAGG (ssRNA), the binding result in the data set with SUD-MC [7] and in the data set with SUD-M [2] was “binds” each time.

As for GGGGGGGGGG (ssRNA) [G10], the binding result with SUD-C [8] was “binds”.

On to AAAAAAAAAA (ssRNA) [A10], for which the binding result with SUD-C [9] and with SUD-MC [10] was “binds” throughout.

For GGGAGGGA (ssRNA), in the data set with SUD-M [11], the binding result is “binds”.

CUAAACGAAC (ssRNA) [TRS(+)]: the results for the binding result in the data set with SUD-MC [12] and in the data set with SUD-M [4] were “binds” and “no binding”, respectively.

With ACUGACUGACUGACUGACUG (ssRNA) [(ACUG)5], the binding result with SUD-MC [13] is on record as “no binding”; in the data set with SUD-C [1], “no binding”; with SUD-M [14] it was “binds”.
